In article PMC5460842 one finds IC50 data, which are given here for one substance.

This assay concerns the target FLAG-EGFR incorporated into nanolipoprotein particles (EGFR-NLP) (not stated ("mammalian")) (UniProt P00533). As to the kind of experiment: BLI; competition with biotinylated EGF on sensor, 100 nM EGFR-NLP; given as EC50.

cetuximab came in with a half-maximal inhibitory concentration (IC50) of 5.87 nM.
